Substrate in this data set: O=C(O)O
In words: cells, lysate or membranes. As to conditions: pH 7.5, 20 mM bis-tris propane-H2SO4, 0.5 mM glucose, 1 µM CaCl2, induced with 100 µM IPTG, labelled compound.

From paper PMC11349869 come the findings set out here.

B1: BCT1 CmpCD fusion (GN128) (Synechococcus elongatus PCC 7942 = FACHB-805) (protein)
chain 1: CGNPPSSSGGGTSSTTQPTAAGASDLEVKTIKLGYIPIFEAAPLIIGREKGFFAKYGLDVEVSKQASWAAARDNVILGSAGGGIDGGQWQMPMPALLTEGAISNGQKVPMYVLACLSTQGNGIAVSNQLKAQNLGLKLAPNRDFILNYPQTSGRKFKASYTFPNANQDFWIRYWFAAGGIDPDKDIELLTVPSAETLQNMRNGTIDCFSTGDPWPSRIAKDDIGYQAALTGQMWPYHPEEFLALRADWVDKHPKATLALLMGLMEAQQWCDQKANRAEMAKILSGRNFFNVPVSILQPILEGQIKVGADGKDLNNFDAGPLFWKSPRGSVSYPYKGLTLWFLVESIRWGFNKQVLPDIAAAQKLNDRVTREDLWQEAAKKLGVPAADIPTGSTRGTETFFDGITYNPDSPQAYLQSLKIKRA
chain 2: MVTARETRRNGSRPSGLKKWRQKLDGILLPLAGILGFLIIWQIFSSSGATRLPGPLSLFTEERTRELLLYPFLDRGGLDKGLFWQTIASLTRVAQGFSIAAIIGISVGILVGLNRQLNAMLDPLFQFLRMIAPLAWVPIALVAFQQNQPAAIFVIFITAVWPILINTAEGVRQIPQDYNNVARVLRMSKSKYLMKVVLPAALPYIFTGLRIAIGLSWLAIIAAEIVMSGIVGIGFFIWDAYQQNYVSDIILAVIYIGAVGLLLDRFVAWLQRWILRNM
For the protein B1, the Km (in general, the concentration of substrate that gives half-maximal velocity) is 120 ± 20 µM.

B2: BCT1 CmpCD fusion with tags (GM319) (Synechococcus elongatus PCC 7942 = FACHB-805) (protein)
chain 1: CGNPPSSSGGGTSSTTQPTAAGASDLEVKTIKLGYIPIFEAAPLIIGREKGFFAKYGLDVEVSKQASWAAARDNVILGSAGGGIDGGQWQMPMPALLTEGAISNGQKVPMYVLACLSTQGNGIAVSNQLKAQNLGLKLAPNRDFILNYPQTSGRKFKASYTFPNANQDFWIRYWFAAGGIDPDKDIELLTVPSAETLQNMRNGTIDCFSTGDPWPSRIAKDDIGYQAALTGQMWPYHPEEFLALRADWVDKHPKATLALLMGLMEAQQWCDQKANRAEMAKILSGRNFFNVPVSILQPILEGQIKVGADGKDLNNFDAGPLFWKSPRGSVSYPYKGLTLWFLVESIRWGFNKQVLPDIAAAQKLNDRVTREDLWQEAAKKLGVPAADIPTGSTRGTETFFDGITYNPDSPQAYLQSLKIKRA
chain 2: MVTARETRRNGSRPSGLKKWRQKLDGILLPLAGILGFLIIWQIFSSSGATRLPGPLSLFTEERTRELLLYPFLDRGGLDKGLFWQTIASLTRVAQGFSIAAIIGISVGILVGLNRQLNAMLDPLFQFLRMIAPLAWVPIALVAFQQNQPAAIFVIFITAVWPILINTAEGVRQIPQDYNNVARVLRMSKSKYLMKVVLPAALPYIFTGLRIAIGLSWLAIIAAEIVMSGIVGIGFFIWDAYQQNYVSDIILAVIYIGAVGLLLDRFVAWLQRWILRNM
Regarding B2, the Km was found to be 170 ± 30 µM.
